Data on one substance can be found in patent US20130045200A1.

By EC50 is commonly meant the concentration at which the effect is half-maximal.

The target of the assay is rat PD-L1 (rat) (UniProt D4AE25). Kind of assay: flow cytometry (FACS); rat cells or protein not described. Background: A flow cytometer gives signals particle by particle.

The substance YW243.55.S70 (IgG) (antibody) had a half-maximal effective concentration (EC50) of 0.8 nM.
